# Reference: patent US20260184782A1 (TWIST BIOSCIENCE, published 2026)
# Residue numbers refer to the chain shown, from its start.
# T1: human TIGIT-Fc (human, UniProt Q495A1 22-141, limits assumed)
# T1 construct: not shown: Fc; not described
# T1 sequence (looked up): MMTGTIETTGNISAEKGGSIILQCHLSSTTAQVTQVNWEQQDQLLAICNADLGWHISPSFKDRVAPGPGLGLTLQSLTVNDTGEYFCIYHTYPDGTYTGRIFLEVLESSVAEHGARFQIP
# B1: TIGIT-SC136 (Fc fusion)
# VHH: EVQLVESGGGLVQPGGSLRLSCAASGFTLENNMMGWFRQAPGKEREFVAAISRSGTLKAYADSVKGRFTISADNSKNTAYLQMNSLKPEDTAVYYCARGGELTTFYFGYWGQGTLVTVSS
# notes: VHH-Fc
# B2: TIGIT-SC150 (Fc fusion)
# VHH: EVQLVESGGGLVQPGGSLRLSCAASGFTLENNMMGWFRQAPGKEREFVAAISRSGTLKAYADSVKGRFTISADNSKNTAYLQVNSLKPEDTAVYYCVRVRGYSGYDCDYWGQGTLVTVSS
# notes: VHH-Fc
# B3: TIGIT-SC102 (Fc fusion)
# VHH: EVQLVESGGGLVQPGGSLRLSCAASGSTFSKHHAMGWFRQAPGKEREFVAAIRWSGGNTYYADSVKGRFTISADNSKNTAYLQMNSLKPEDTAVYYCARWYSSSGDYYYMDVWGQGTLVTVSS
# notes: VHH-Fc
# B4: TIGIT-SC104 (Fc fusion)
# VHH: EVQLVESGGGLVQPGGSLRLSCAASGFTFSTYTMGWFRQAPGKEREFVAAISPSGNTYYADSVKGRFTISADNSKNTAYLQMNSLKPEDTAVYYCARWGGITFGGVYPLDYWGQGTLVTVSS
# notes: VHH-Fc
# B5: TIGIT-SC94 (Fc fusion)
# VHH: EVQLVESGGGLVQPGGSLRLSCAASGSSFSAYAMGWFRQAPGKEREFVSLINWSSGKTIYADSVKGRFTISADNSKNTAYLQMNSLKPEDTAVYYCARVRIFNHVHRPSYYFDYWGQGTLVTVSS
# notes: VHH-Fc
# B6: TIGIT-SC96 (Fc fusion)
# VHH: EVQLVESGGGLVQPGGSLRLSCAASGMTTIGPMGWFRQAPGKEREFVAAINWSGSSTVYADSVKGRFTISADNSKNTAYLQMNSLKPEDTAVYYCVTYSAYDFRNAWGQGTLVTVSS
# notes: VHH-Fc
# B7: TIGIT-SC92 (Fc fusion)
# VHH: EVQLVESGGGLVQPGGSLRLSCAASGSTIENYAMGWFRQAPGKEREFVAAIDWSGGSTYYADSVKGRFTISADNSKNTAYLQMNSLKPEDTAVYYCARWRSIWSGYDDYYYMDVWGQGTLVTVSS
# notes: VHH-Fc
# B8: TIGIT-SC93 (Fc fusion)
# VHH: B7 VHH with G26S, S27R, I29V, E30S, N31S, Y32H, D52S, G56V, S57T
# notes: VHH-Fc
# B9: TIGIT-SC91 (Fc fusion)
# VHH: B7 VHH with S27F, I29F, E30S, D52N, S54N, G55S, G56R
# notes: VHH-Fc
# B10: TIGIT-SC137 (Fc fusion)
# VHH: EVQLVESGGGLVQPGGSLRLSCAASGFTLENNMMGWFRQAPGKEREFVAAISRSGTLKAYADSVKGRFTISADNSKNTAYLQMNSLKPEDTAVYYCSLVSGPRWYWGQGTLVTVSS
# notes: VHH-Fc
# B11: TIGIT-SC133 (Fc fusion)
# VHH: EVQLVESGGGLVQPGGSLRLSCAASGFTLENNMMGWFRQAPGKEREFVAAISASGTLRAYADSVKGRFTISADNSKNTAYLQMNSLKPEDTAVYYCACGRVSGAFIYFDYWGQGTLVTVSS
# notes: VHH-Fc
# B12: TIGIT-SC105 (Fc fusion)
# VHH: EVQLVESGGGLVQPGGSLRLSCAASGFAFSRYGMGWFRQAPGKERELVATIGWSGSSTFYADSVKGRFTISADNSKNTAYLQMNSLKPEDTAVYYCARDGGPYYYGLDVWGQGTLVTVSS
# notes: VHH-Fc
# B13: TIGIT-SC134 (Fc fusion)
# VHH: EVQLVESGGGLVQPGGSLRLSCAASGFTLENNMMGWFRQAPGKEREFVAAISASGTLRAYADSVKGRFTISADNSKNTAYLQMNSLKPEDTAVYYCARWYRVNNWSPGYYYYMDVWGQGTLVTVSS
# notes: VHH-Fc
# B14: TIGIT-SC100 (Fc fusion)
# VHH: EVQLVESGGGLVQPGGSLRLSCAASGRTLSDRAMGWFRQAPGKEREFVAAITDNGGSTYYADSVKGRFTISADNSKNTAYLQMNSLKPEDTAVYYCARWYSSSGDYYYMDVWGQGTLVTVSS
# notes: VHH-Fc
# B15: TIGIT-SC101 (Fc fusion)
# VHH: B14 VHH with L29F, D31S, R32Y, T52D, D53W, N54S, G55D
# notes: VHH-Fc
# Biological target: T1, human TIGIT-Fc
# Assay: CD155 competition ELISA, single point; also: test concentration or dose not given here
# Experimental: TIGIT/CD155 inhibition of VHH-Fcs were assessed using an ELISA assay (Table 10B). Briefly, human TIGIT-Fc was coated on a plate & then incubated with VHH-Fcs and human CD155-biotin. Bound CD155-biotin was detected using a streptavidin-HRP conjugate visualized with TMB. Strong inhibitors from the single point screen were titrated to determine EC50 (Table 10C).
row,Binder,OD (450 nm)
1,B1,0.571 OD
2,B2,0.445 OD
3,B3,0.311 OD
4,B4,0.701 OD
5,B5,0.513 OD
6,B6,0.677 OD
7,B7,0.593 OD
8,B8,0.307 OD
9,B9,0.484 OD
10,B10,0.306 OD
11,B11,0.284 OD
12,B12,0.959 OD
13,B13,0.845 OD
14,B14,0.692 OD
15,B15,0.394 OD
